Results on three proteins are retold here after patent publication US20090274682.

For data set [1], the target named is PP2A core enzyme variant involving truncation of the carboxy-terminus of the catalytic subunit (two C-terminal amino acids removed by chymotrypsin).
Data set [2] has as its target PP2A core enzyme (AC heterodimer) involving the full-length A subunit.
Data set [3] has as its target PP2A core enzyme involving full-length Cα and AΔN, methylated by LCMT1.

Residue numbers refer to the chain shown, from its start. In names and notes the source's numbering stands.

Sequence of PP2A core enzyme (AC heterodimer) involving the full-length A subunit (chain, as listed by the source, chain 1 of 2): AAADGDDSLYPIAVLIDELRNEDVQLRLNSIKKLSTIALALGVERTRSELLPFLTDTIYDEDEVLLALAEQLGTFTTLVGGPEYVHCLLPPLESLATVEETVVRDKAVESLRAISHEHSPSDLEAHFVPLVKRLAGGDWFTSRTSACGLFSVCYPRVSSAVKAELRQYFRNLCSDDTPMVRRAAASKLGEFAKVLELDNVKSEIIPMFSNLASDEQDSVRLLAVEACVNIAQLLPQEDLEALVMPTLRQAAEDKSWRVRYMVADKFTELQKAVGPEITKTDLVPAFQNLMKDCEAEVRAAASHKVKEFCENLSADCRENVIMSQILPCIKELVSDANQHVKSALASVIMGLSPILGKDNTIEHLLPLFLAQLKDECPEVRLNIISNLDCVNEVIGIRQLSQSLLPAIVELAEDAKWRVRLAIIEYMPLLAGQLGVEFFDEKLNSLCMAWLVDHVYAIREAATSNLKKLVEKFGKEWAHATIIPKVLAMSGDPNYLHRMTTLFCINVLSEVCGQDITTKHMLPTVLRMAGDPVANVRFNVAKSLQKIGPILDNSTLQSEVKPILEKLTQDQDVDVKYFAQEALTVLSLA
Sequence of PP2A core enzyme (AC heterodimer) involving the full-length A subunit (chain, as listed by the source, chain 2 of 2): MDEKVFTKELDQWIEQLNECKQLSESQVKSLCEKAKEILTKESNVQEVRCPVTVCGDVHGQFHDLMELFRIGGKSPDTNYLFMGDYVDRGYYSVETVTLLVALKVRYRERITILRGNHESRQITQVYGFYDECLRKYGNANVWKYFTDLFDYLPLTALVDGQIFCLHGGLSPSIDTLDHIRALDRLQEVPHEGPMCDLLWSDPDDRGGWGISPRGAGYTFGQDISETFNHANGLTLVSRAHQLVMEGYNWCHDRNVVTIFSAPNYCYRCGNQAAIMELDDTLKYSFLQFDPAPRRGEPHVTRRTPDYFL
Sequence of PP2A core enzyme involving full-length Cα and AΔN, methylated by LCMT1 (chain, as listed by the source mutant, chain 1 of 2): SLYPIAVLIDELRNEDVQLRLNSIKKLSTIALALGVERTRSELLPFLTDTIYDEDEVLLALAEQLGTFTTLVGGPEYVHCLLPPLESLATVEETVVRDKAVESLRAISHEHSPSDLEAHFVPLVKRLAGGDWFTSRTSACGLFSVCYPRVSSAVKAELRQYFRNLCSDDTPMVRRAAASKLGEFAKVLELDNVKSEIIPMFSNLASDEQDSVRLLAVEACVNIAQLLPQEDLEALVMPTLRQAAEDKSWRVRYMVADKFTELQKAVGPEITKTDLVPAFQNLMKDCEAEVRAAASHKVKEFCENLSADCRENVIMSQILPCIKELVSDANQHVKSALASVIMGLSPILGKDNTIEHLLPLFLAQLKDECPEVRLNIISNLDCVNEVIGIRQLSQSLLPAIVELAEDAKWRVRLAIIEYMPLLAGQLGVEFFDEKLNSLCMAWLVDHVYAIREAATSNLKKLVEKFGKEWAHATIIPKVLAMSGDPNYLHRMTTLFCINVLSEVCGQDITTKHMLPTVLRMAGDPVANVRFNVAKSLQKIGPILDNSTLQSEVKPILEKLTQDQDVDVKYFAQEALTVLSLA
Sequence of PP2A core enzyme involving full-length Cα and AΔN, methylated by LCMT1 (chain, as listed by the source mutant, chain 2 of 2): as the sequence (chain, as listed by the source, chain 2 of 2) above
Sequence of PP2A core enzyme variant involving truncation of the carboxy-terminus of the catalytic subunit (two C-terminal amino acids removed by chymotrypsin) (chain, as listed by the source mutant, chain 1 of 2): as the sequence (chain, as listed by the source mutant, chain 1 of 2) above
Sequence of PP2A core enzyme variant involving truncation of the carboxy-terminus of the catalytic subunit (two C-terminal amino acids removed by chymotrypsin) (chain, as listed by the source mutant, chain 2 of 2): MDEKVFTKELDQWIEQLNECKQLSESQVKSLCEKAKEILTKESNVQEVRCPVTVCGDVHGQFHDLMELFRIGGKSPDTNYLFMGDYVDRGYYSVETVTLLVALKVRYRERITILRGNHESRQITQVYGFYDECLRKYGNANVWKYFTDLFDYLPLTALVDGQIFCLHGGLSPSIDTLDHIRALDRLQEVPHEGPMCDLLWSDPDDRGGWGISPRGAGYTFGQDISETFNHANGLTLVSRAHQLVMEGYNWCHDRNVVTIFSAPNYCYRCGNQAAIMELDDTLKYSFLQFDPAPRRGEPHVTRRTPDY

B1: Full-length PME-1 (1-386) (protein)
chain: MSALEKSMHLGRLPSRPPLPGSGGSQSGAKMRMGPGRKRDFSPVPWSQYFESMEDVEVENETGKDTFRVYKSGSEGPVLLLLHGGGHSALSWAVFTAAIISRVQCRIVALDLRSHGETKVKNPEDLSAETMAKDVGNVVEAMYGDLPPPIMLIGHSMGGAIAVHTASSNLVPSLLGLCMIDVVEGTAMDALNSMQNFLRGRPKTFKSLENAIEWSVKSGQIRNLESARVSMVGQVKQCEGITSPEGSKSIVEGIIEEEEEDEEGSESISKRKKEDDMETKKDHPYTWRIELAKTEKYWDGWFRGLSNLFLSCPIPKLLLLAGVDRLDKDLTIGQMQGKFQMQVLPQCGHAVHEDAPDKVAEAVATFLIRHRFAEPIGGFQCVFPGC
Consider B1, for which the “methylesterase activity of PME-1 after pre-incubation with the PP2A variant and PMSF” value in data set [1] is “pre-incubation with the PP2A variant and PMSF led to marked reduction of PME-1-mediated methylesterase activity”. Moreover, in data set [2], the LCMT1-catalyzed methylation entry is “the stable complex between PP2A and PME-1 blocks LCMT1-catalyzed methylation (data not shown)”; the “phosphatase activity after incubation at 37° C.” value is on record as “A prolonged incubation time was required for substantial loss of the phosphatase activity in vitro”; the “phosphatase activity towards phosphorylase a upon initial incubation” value is “The PP2A core enzyme, upon initial incubation with various concentrations of PME-1, exhibited full phosphatase activity towards the substrate phosphorylase a”. Besides, the “methylesterase activity of PME-1” value in data set [3] was “The methylesterase activity of PME-1 on the PP2A core enzyme involving the AΔN variant was nearly identical to that on the PP2A core enzyme involving the full-length A subunit”.

B2: PME-1 M335D (protein)
chain: B1 chain with M335D
As for B2, the “Mn2+ bound (ICP-MS) and phosphatase activity with or without manganese chloride” value in data set [2] was “mutation of Met335 to aspartate in PME-1 led to decreased ability to remove the metal ions, and the PP2A-PME-1-M335D complex became readily activated by manganese”.

B3: PME-1 R369D (protein)
chain: B1 chain with R369D
As for B3, in data set [2], the methylesterase activity result is “R369D in PME-1 resulted in marked reduction of its methylesterase activity”.
